Assays:
Y16 cells [1] = assay: ADCC activity against Y16 cells with human PBMC effector cells (LDH release); type: cell-based, mouse; conditions: 4 hrs, 0.0001-1000 ng/mL (control antibodies 1000 ng/mL), FIG. 13
Experimental: The H7 recombinant chimeric antibodies prepared in Example 8 were evaluated for their ADCC activity against Y16 cells using frozen human peripheral blood mononuclear cells (PBMCs) (manufactured by AllCells) as effector cells. The frozen human PBMCs were shake-cultured (37° C., 5% CO2, overnight) in RPMI1640 medium containing 5% FBS. The Y16 cells (target cells) and the human PBMCs (effector cells) were washed with ADCC assay medium (RPIM1640 containing 5% dialyzed FBS) and adjusted to cell densities of 2×10^5 cells/mL and 3×10^6 cells/mL, respectively. The cells were washed twice with a medium and then suspended into cell densities of 4×10^5 cells/mL. Each chimeric antibody adjusted to a final concentration of 0.0001, 0.001, 0.01, 0.1, 1, 10, 100, or 1000 ng/mL, the target cells (2×10^4 cells/well), and the effector cells (5×10^5 cells/well) were added in this order at 50 μL/well to a 96-well U-bottom plate. The control antibodies used were the rtDNP-1 hIgG1 (DF) antibody (KM8808) and the rtDNP-1 hIgG1 (N297A) antibody (KM6161) of Example 10 adjusted to a final concentration of 1000 ng/mL. The plate was centrifuged (500 rpm, 5 min) and then left standing in an incubator (37° C., 5% CO2, 4 hrs). The plate was centrifuged (1500 rpm, 5 min) to recover a supernatant at 50 μL/well into a 96-well Flat-bottom plate (manufactured by Sumitomo Bakelite Co., Ltd.). Lactate dehydrogenase (LDH) activity in the supernatant was detected using CytoTox 96 Non-Radioactive Cytotoxicity Assay (manufactured by Promega Corp.). Absorbance at 490 nm was measured using a plate reader SPECTRA MAX 340 PC384 (manufactured by Molecular Devices, LLC). The ADCC activity (%) was calculated according to the following equation using background-corrected measurement values. Cytotoxicity=[[Absorbance of the sample]−[Absorbance derived from spontaneous release from the target cells and the effector cells]]/[[Absorbance derived from total release from the target cells]−[Absorbance derived from spontaneous release from the target cells]]

[2] = system: eosinophils (CD45-positive, Gr1-negative, Siglec-F-positive cells); assay: IL-33-induced increase of lung eosinophils, FCM of lung cell suspension; type: in vivo, mouse; conditions: IL-5+/+ mice, 100 μg antibody i.p. five times; for inhibition of IL-33-induced increase in the number of eosinophils: FCM day 21, FIG. 16; for abundance ratio of eosinophils, in absence of IL-33 (PBS): PBS instead of IL-33; for abundance ratio of eosinophils, in absence of IL-33 (PBS) / abundance ratio of eosinophils, in presence of IL-33: lung cells day 21, FCM; for abundance ratio of eosinophils, in presence of IL-33: rIL-33 days 0, 7, 14
Experimental: (§1) In an experimental system similar to that of Example 3, in order to confirm the inhibitory effects of anti-IL-5R antibodies and anti-IL-5 neutralizing antibodies on vascular wall thickening, 100 μg of the H7 (CS) hIgG1 (DF) (H7-2) antibody, the H7 (CS) hIgG1 (N297A) (H7-4) antibody, an anti-IL-5 antibody (ligand-neutralizing antibody, clone name: TRFK5), the anti-DNP antibody KM8808, the anti-DNP antibody KM6161, or rat IgG (clone name: HRPN) was intraperitoneally administered to each IL-5^+/+ mouse a total of five times (3 consecutive days (three times) from two days before the first rIL-33 administration day (day 0), once on the second rIL-33 administration day (day 7), and once on the third rIL-33 administration day (day 14)) (FIG. 15). Then, on day 21, lung tissues were resected and evaluated by FCM and immunofluorescent staining.
In the FCM, 1×10^6 cells in the lung cell suspension were stained with a PE-Cy7-conjugated anti-CD45 antibody (30-F11), an APC-conjugated anti-Gr1 antibody (RB6-8C5), and a PE-conjugated anti-Siglec-F antibody (E50-2440) (all manufactured by BD Biosciences). CD45-positive, Gr1-negative, and Siglec-F-positive cells were regarded as eosinophils, and the influence of antibody administration was observed.

Y16 cells [3] = assay: IL-5 signal inhibition: rIL-5-dependent Y16 growth inhibition (WST-1); type: cell-based, mouse; conditions: rIL-5 5 units/mL, 24 hours; for inhibition of Y16 cell growth (IL-5 signal-inhibiting function): antibody 0.01-10 μg/mL, FIG. 14
Experimental: Whether or not the various recombinant chimeric antibodies prepared in Example 8 would have the function of inhibiting IL-5 signals was studied by using Y16 growth inhibition as an index. 2×10^3 Y16 cells were cultured for 24 hours in the presence or absence of rIL-5 (5 units/mL) after addition of the Cys substitution-containing core fucose-unlinked H7 recombinant chimeric antibody H7 (CS) hIgG1 (DF) (H7-2), the N-linked sugar chain-deficient H7 recombinant chimeric antibody H7 (CS) hIgG1 (N297A) (H7-4), and the anti-DNP antibodies KM8808 and KM6161 at a concentration of 0.01, 0.1, 1, or 10 μg/mL. 24 hours later, these antibodies were evaluated for their ability to inhibit growth using Premix WST-1 Cell Proliferation Assay System (manufactured by Takara Bio Inc.). The culture time after addition of the reagent of the cell growth assay kit was set to 1 hour.

[4] = system: IL-33-induced vascular wall thickening (SMA-positive cells); assay: IL-33-induced vascular wall thickening, immunofluorescent staining of lung tissue; type: in vivo, mouse; conditions: IL-5+/+ mice, 100 μg antibody i.p. five times; lung tissue day 21
Experimental: as §1
In the immunofluorescent staining, the tissues were sliced into 30 μm, and slides were prepared and then stained with an Alexa 488-conjugated anti-SMA antibody (1A4) (manufactured by Abcam plc) and an Alexa 647-conjugated anti-Siglec-F antibody (E50-2440). The nuclei of the cells were stained with Hoechst 33342 (manufactured by Life Technologies Corp.). Here, the degree of the growth of SMA-positive cells (primary media-constituting cells) was observed.

Molecule | ADCC activity against Y16 cells (Y16 cells [1]) | inhibition of IL-33-induced increase in the number of eosinophils [2] | abundance ratio of eosinophils, in absence of IL-33 (PBS) [2] [%] | abundance ratio of eosinophils, in presence of IL-33 [2] [%] | Y16 growth inhibiting ability, H7-2 and H7-4 compared (Y16 cells [3]) | inhibition of Y16 cell growth (IL-5 signal-inhibiting function) (Y16 cells [3]) | inhibition of IL-33-induced vascular wall thickening (immunofluorescent staining) [4]
H7-4: N-linked sugar chain-deficient H7 chimeric antibody, human IgG1 (N297A), with Cys at VL position 87 replaced with Ser (antibody, V domains shown) VH: EVQLQQSGAELGKPGTSVKLSCKVSGYNIKNTYIHWVNQRPGKGLEWIGRIDPANGNPIYAEKFKNKATLTADTSSNTAYMQLSQLKSDDTAIYFCAMHRGHSMGPGPYVMDAWGQGASVTVSS VL: DIQMTQSPASLSASLGETVTIECRTSEDIYNGLAWYQQKPGKSPQLLIYNANSLHTGVPSRFSGSGSGTQYSLKINSLQSEDVASYSCQQYSNYPFTFGSGTKLEIK | none | at a degree poorer than that of H7-2 | 0.17 | 29.1 | equivalent inhibiting ability | inhibited the growth of the Y16 cells in an antibody concentration-dependent manner | at a degree poorer than that of H7-2
KM8808: core fucose-deficient anti-dinitrophenol (DNP) rat/human chimeric antibody, isotype control (antibody, V domains shown) VH: EVQLQESGPGLVKPSQSLSLTCSVTGYSITSGYWNWIRKFPGNKMEWIGYISYSGSTYYNPSLKSRISITRDTSKNQFFLQLNSVTTEDTATYYCARWGVRHYFDYWGQGVMATVSS VL: DVVMTQTPVSLPVSLGGQASISCRSSQSLANSYGNTYLSWYLQKPGQSPQLLIYRVSNTFSGVPDRFSGSGSGTDFTLKISRVEPEDLGDYYCLQGTHQPYTFGAGTKLELK | none | not inhibited | 1.19 | 48.3 |  | not observed | not observed
KM6161: N-linked sugar chain-deficient anti-DNP rat/human chimeric antibody containing N297A substitution, isotype control (antibody, V domains shown) VH: EVQLQESGPGLVKPSQSLSLTCSVTGYSITSGYWNWIRKFPGNKMEWIGYISYSGSTYYNPSLKSRISITRDTSKNQFFLQLNSVTTEDTATYYCARWGVRHYFDYWGQGVMATVSS VL: DVVMTQTPVSLPVSLGGQASISCRSSQSLANSYGNTYLSWYLQKPGQSPQLLIYRVSNTFSGVPDRFSGSGSGTDFTLKISRVEPEDLGDYYCLQGTHQPYTFGAGTKLELK | none | not inhibited | 0.92 | 52.4 |  | not observed | not observed
